# Source: US20180280525A1 (published 2018)
# Numbered stars: 1 amine (or outer) side, 2 acyl side, 3 side chain; on linkers, the order of the positions; unused ones are H or OH. Bridge positions count the residues as written; N and C are the ends. Square brackets hold non-standard residues; d marks the D form. Ends that are not written are not given here. * marks the point of attachment. DOTA = O=C(O)CN1CCN(CC(=O)O)CCN(CC(=O)*)CCN(CC(=O)O)CC1; fluorescein = fluorescein label on the Lys side chain; Phe(4-Br) = N[C@@H](Cc1ccc(Br)cc1)C(=O)O; 1Nal = N[C@@H](Cc1cccc2ccccc12)C(=O)O; TBMB = c1c(C[*:1])cc(C[*:3])cc1C[*:2]; Tle = CC(C)(C)[C@H](N)C(=O)O; Sar = CNCC(=O)O
# B1: 17-69-07-N252 (peptide)
# chain: Ac-C[dA]NE[1Nal][dA]CEDF[Phe(4-Br)]D[Tle]C
# modifications: linker 1-7-14 via TBMB; not fully specified (C-terminus); printed as Ac-(17-69-07) D-Ala1 1Nal4 D-Ala5 4BrPhe9 tBuGly11
# B2: 17-69-07-N248 (peptide)
# chain: {DOTA}-AC[dA]NE[1Nal][dA]CEDF[Phe(4-Br)]D[Tle]C
# modifications: linker 2-8-15 via TBMB; not fully specified (C-terminus); also: 177Lu chelated in DOTA for biodistribution study
# B3: 17-69-N004 (peptide)
# peptide: ACKNRGFGCEDFYDICA[Sar][Sar][Sar][Sar][Sar][Sar]K(fluorescein)
# modifications: linker 2-9-16 via TBMB; not fully specified (C-terminus)
# notes: also called A-(17-69)-A-Sar6-K(Fl); A-(17-69)-A-Sar6-K(Fluorescein)
# B4: 17-69-07-N219 (peptide)
# peptide: GXACYNEFGCEDFYDIC
# modifications: not fully specified; Sar x10 in the spacer; 3 Cys cyclised with TBMB
# notes: also called G-Sar10-A-(17-69-07) (non-stabilised with spacer)
# B5: 17-69-07-N144 (peptide)
# peptide: {DOTA}-ACYNEFGCEDFYDIC
# modifications: linker 2-8-15 via TBMB; not fully specified (C-terminus); also: DOTA loaded with 177Lu
# notes: Loaded with 177Lu for the biodistribution study; also called DOTA-A-(17-69-07)
# B6: 17-69-12-N005 (peptide)
# peptide: ACMNQFGCEDFYDICA[Sar][Sar][Sar][Sar][Sar][Sar]K(fluorescein)
# modifications: linker 2-8-15 via TBMB; not fully specified (C-terminus)
# notes: also called A-(17-69-12)-A-Sar6-K(Fl); A-(17-69-12)-A-Sar6-K(Fluorescein)
# B7: 17-69-07-N040 (peptide)
# peptide: ACYNEFGCEDFYDICA[Sar][Sar][Sar][Sar][Sar][Sar]K(fluorescein)
# modifications: linker 2-8-15 via TBMB; not fully specified (C-terminus)
# notes: also called A-(17-69-07)-A-Sar6-K(Fl); A-(17-69-07)-A-Sar6-K(Fluorescein)
# B8: 17-69-07-N147 (peptide)
# peptide: {DOTA}-ACYNEFGCEDFYDIC
# modifications: linker 2-8-15 via TBMB; not fully specified (C-terminus); also: DOTA loaded with cold 175Lu
# notes: also called DOTA[Lu]-A-(17-69-07)
# Key:
# [1] = target: T1, human MT1-MMP hemopexin domain (human, UniProt P50281 319-511); experiment: FP competition, human MT1-MMP hemopexin domain; tracer not given
# T1 construct: range 319-511; Secreted from HEK293 cells as soluble N-terminally His6-tagged protein; also called MT1-MMP hemopexin-like repeats; MMP14
# [2] = target: T1, human MT1-MMP hemopexin domain; experiment: FP competition, tracer A-(17-69-07)-A-Sar6-K(Fluorescein)
# [3] = target: T1, human MT1-MMP hemopexin domain; experiment: FP competition, tracer A-(17-69-12)-A-Sar6-K(Fluorescein)
# [4] = target: T1, human MT1-MMP hemopexin domain; experiment: FP competition, human MT1-MMP hemopexin domain; method not given
# [5] = target: T1, human MT1-MMP hemopexin domain; experiment: FP direct binding, fluoresceinated peptide titrated with hemopexin domain
# [6] = target: T1, human MT1-MMP hemopexin domain; experiment: FP competition, human MT1-MMP hemopexin domain; tracer not given; remark: listed apart in the source
# [7] = target: T1, human MT1-MMP hemopexin domain; experiment: as above; remark: listed apart in the source
# [8] = target: T2, dog MT1-MMP hemopexin domain (dog, UniProt A0A8I3MND9 318-511); experiment: FP competition, dog MT1-MMP hemopexin domain
# T2 construct: domain: hemopexin domain
# Protocol: Subsequently, the non-fluorescent competitor bicyclic peptide (usually just the bicycle core sequence) is titrated, such that it displaces the fluorescent tracer from the target protein. The displacement of the tracer is measured and associated with a drop in fluorescence polarisation. The drop in fluorescence polarisation is proportional to the fraction of target protein bound with the non-fluorescent titrant, and thus is a measure of the affinity of titrant to target protein.
# [9] = target: T1, human MT1-MMP hemopexin domain; experiment: FP competition, human MT1-MMP hemopexin domain (n = 3; footnote e)
# [10] = target: T1, human MT1-MMP hemopexin domain; experiment: FP competition, human MT1-MMP hemopexin domain; tracer not given; remark: listed apart in the source
# [11] = target: T1, human MT1-MMP hemopexin domain; experiment: FP competition, Human/cyno MT1-MMP hemopexin domain
# [12] = target: T1, human MT1-MMP hemopexin domain; experiment: FP competition, tracer A-(17-69-07)-A-Sar6-K(Fluorescein); remark: listed apart in the source
binder,measurement,setting,value
B1,Kd,[1],0.8 nM
"ACVNEFGCEDFYDICA (linker 2-8-15 via TBMB; not fully specified (C-terminus), also called A-(17-69-03)-A) [17-69-03-N001]",Kd,[2],16.7 nM
"ACYNEFGCEDFYDICA (linker 2-8-15 via TBMB; not fully specified (C-terminus), also called A-(17-69-07)-A) [17-69-07-N001]",Kd,[3],1.65 nM
B2,Kd,[4],0.5 nM
B3,Kd,[5],692 nM
"ACFGEFGCEDFYDICA (linker 2-8-15 via TBMB; not fully specified (C-terminus), also called A-(17-69-02)-A) [17-69-02-N001]",Kd,[2],191 nM
"Ac-CYNEYGCEDFYDIC (linker 1-7-14 via TBMB; not fully specified (C-terminus), also called Ac-(17-69-07) Tyr4) [17-69-07-N057]",Kd,[6],1.78 nM
"Ac-CYNEWGCEDFYDIC (linker 1-7-14 via TBMB; not fully specified (C-terminus), also called Ac-(17-69-07) Trp4) [17-69-44-N002]",Kd,[6],0.75 nM
Ac-CYNEF[dR]CEDFYDIC (linker 1-7-14 via TBMB; not fully specified (C-terminus)) [17-69-07-N120],Kd,[7],4.24 nM
B4,Kd,[8],0.9 nM
same,Kd,[9],0.82 nM
same,Kd,[10],0.82 nM
same,Kd,[11],0.82 nM
"ACMNQFGCEDFYDICA (linker 2-8-15 via TBMB; not fully specified (C-terminus), also called A-(17-69-12)-A) [17-69-12-N003]",Kd,[12],3.7 nM
B5,Kd,[4],0.5 nM
B6,Kd,[5],3.1 nM
B7,Kd,[5],0.52 nM
B8,Kd,[4],0.95 nM
